Assay results from the DeepSol protein solubility set.

Assay: soluble on expression in E. coli; label from the status in PepcDB or PDB records

Sequence | soluble on expression in E. coli
MLRIAVDCMGGDYAPLEIVRGCILAAKELGYKIYLVGDKEQIIPILEKAKEHNNSLLEVVHAPDKVEMHEPPSNVLKKKNSSLYVAGMLVRKGEADGLVSAGNTGAVLAVGKFIVGAEEEVERPSIGVALPNPKGKTVLIDVGANVDCKPKHLVQFAVIGHTYAEEILGIKNPRVGILSIGEEEGKGNELVKETYPLLKATKLNFKGNAEGRDIYAGTFDVIVCDGFVGNVILKASESLGLAVVQMIKEEIKRSILAKLGALLLMPALNRFKKKADFAEYGGIPLLGAKKPVIITHGRANAKAIKNAVRVAGEFLNTDFNKKLVYNLKTLIPEGVKV | soluble
MSLRDISILLAEDESELRELLHEYLQLFFGRVYAATSGDQAYDIYKQKKPDIIITDISMPNLDGLEMISKIRESDKETKIIVMSAHSEQERLLLAIKLNLESYLIKPIKTEALKTILLDIVKHLREKSRRTYVTENIYWEHETNTLWGNSKEIKLRKMESMLLKLLFSRPNEIFSTKEIFDYLHETKNDKEFSVHAVTSLMKRLRAKLPNEVIHNIYGSGYKIIPIEGHHHHHH | soluble
MAVPQLYYFNLRGFGEYIRLLFLDNGIQFEDIRFDYEGKEWQEFKKGMLLGQLPCLKVDRQEIVQTGAIMRHLGRVHEKNLARNFNFSKKYLMGKLTFLEKCGLNGSNEQEATFLDMFFEGVRDVRWKYVRSSRTLKSFWERMWKRPNLNAYLEKRKADKVRINGSDKGMN | not soluble
SLSMVLLRGRLLSFRRAPLSIDDTQSYLYIEDGGLLLENGRIAAIGEYADIRETAPEDVEEKDHRPHLIVPGLIDMHLHFPQMQVIGSYAANLLEWLNTYTFPEECRFVESAHAQRIATHFYDELLRHGTTTAAAYCSVHKTSADAFFTEAMKRNMLMIGGKVMMDRNAPQGLLDTPETSYDETRQVIADWHGRGRNHVAITPRFAITSTPKQMEAAQALAQEFPDLFIQTHLSENLDEIKYTCELYPEATDYTDIYVRYGLMGNKTLLGHAIHLSDREADVLSETGAVAVHCPTSNLFIGSGLFPMKKLQRREKPVRIAVATDIGGGSSYSMLRTMDEAYKIQQLLGERLNPLESWYLMTRGNAEALSMVDRIGTLEAGTDADITVLNASSTPAMALKMEVVKSLTEELFLMLTMGDDRTVVETYVAGRAMKSVLA | not soluble
MGSDKIHHHHHHMKEHEVVGIDRTPCSTADVVGDIRDTALLAEALEGVEVIIHTAALHAPHVGLVPGDEFEEINIKATEQLALMGVKKGIKHFVFTSTTALYGFASTPAGRAGWVDETVMPRPKTIYHHSKIKAEQLLENISSSFDLPVTVLQMSRCFPEPVNLMAVYRLTRGIDARDVARAHACAVERRLSGFRRYIISGKTPFSKACCERLYRDANDVIREAIPGLAESFAVRGWSMPQSLDRVYDSSLAQHELGWQPKYGYESVLSLLDNESAEVLPMKSQS | not soluble
MQNGAMKAWLDSSYLAGANQSYIEQLYEDFLTDPGSVDDSWRSIFQQLPTTGVKPDQLHSQTREYFRRLAKDSTRYNSSINDPDIDAKQVKVLQLINAFRFRGHQHANLDPLGLWKQESVPDLDPSYHNLTEADFQNTFNVGSFAIGKETMKLADLYAALKQTYCGSVGAEYMHITNTEEKRWIQQRIESVVGKPTFSDAEKRRFLSELTAAEGLERYLGAKFPGAKRFSLEGGDSLVTMLKEMIRHAGKNGTREVVLGMAHRGRLNVLINVLGKKPEDLFDEFAGKHKEHLGTGDVKYHQGFSSDVETEGGLVHLALAFNPSHLEIVSPVVIGSVRARRDRLDEARSNMVLPITIHGDAAITGQGVVQETLNMSQARGYEVGGTVRIVINNQIGFTTSNPLDARSTQYCTDIAKMVQAPIFHVNADDPEAVAFVTRLALDFRNTFKRDVMIDLVCYRRHGHNEADEPSATQPVMYQKIKKHPTPRKIYADKLIEQNIASLEDATEMVNLYRDALDHGDCVVEEWRPMNLQSFTWSPYLNHEWDEAYPSKVEMKRLQELARRISSAPEAIEMQSRVAKIYSDRALMASGEKPFDWGGAETLAYATLVDEGIPIRLSGEDAGRGTFFHRHAVIHNQKNGSVYVPLSNIHSGQGDFQVWDSVLSEEAVLAFEYGYATAEPRTLTIWEAQFGDFANGAQVVIDQFISSGEQKWGRMCGLVMLLPHGYEGQGPEHSSARLERYLQLCAEQNMQVCIPSTPAQVYHMIRRQALRGMRRPLIVMSPKSLLRHPLATSSLDELANGSFLPAIGEIDELDPKGIKRVVMCSGKVYYDLLEQRRKNGQTDVAIVRIEQLYPFPHQAVQSVLEQYAHVHDFVWCQEEPLNQGAWYCSQHNFREVIPFGASLRYAGRPASASPAVGYLSVHQKQQQALVNDALNVE | not soluble
MSLAEGGFVDDAKASFNLRNFYINRNFVDPANPQGKAEEWTQSFILDARSGFTQGTIGFGVDMLGLYSLKLDGGKGTAGTHLLPVHDDGRPADDFGRLGVALKARLSQTELKVGEWMPVLPILRSDDGRSLPQTFRGGQLTSRELDGLTLYAGQFRGNSPRNDASMEDMFMQGRTGITSDRFNFAGGEYTFNDKRTMLGLWNAQLKDIYRQQYVNLVHSQPLGEWTLGANLGYFLGKEDGSARAGDLDNRTASAMLSARYKGHTFYIGLQKVSGDDAWMRVNGTSGGTLANDSYNASFDNAKERSWQLRHDFNFVTVGLPGLTLMNRYIKGDNVHTSAVDDGKEWARETELAYVVQSGVFKDLSVKWRNSTMRRDFSSNAFDENRVIVSYPLNLLEGHHHHHH | soluble
MFYLGIDAGGTKTSFMLINHLGEVLSTYTSGTCHIHQVGFDGFRKGIQEGIDKICSEINICRDDLSYSFLGLPAYGENESEKLKMNSIIAEILGENKFSCGNDVEVALAGSLAGQPGICIILGTGAIASGITNDLKTARTSGWGYICGDEGSGYWIAKKGVEIFGKQSDHRLERTALYDIFKNELKLENDFDLIFLIKDKYKQDRTKVANLAMLVYKAALKGDKYALDIYRQAAKECLLMVNGLTNQLEFTGVLNISYSGSVFNSKEFILDPLRNYLQDNYTAFNLTAPILPPIKGAALNALKLHKGEIPEGVVHNLAKEPKEILVLEHHHHHH | not soluble
MQVLSEATPMTNGEVYALLRRRRDERNAARHPPFGLQPVLADSHQRAAVATGAAAATAVAPSAPASASAISRAASVMSHNSVGQHSGSKAAPAGAIESAASAAAASTASILASPSSVHLVVLLTEVTMLNYIANHSSLLLESARPTPAGVRVRTCTPRDVYGPTSVYNRVVGTEGRSDAAVGASATAAGSLLDAELVSSCYAKLASHRPGTRGHVRGVEELLEHFEEVGRAQERLYAAGVRRAVQQLWRRRLWVPAEGLYPPPSPPFATTAPSLSNGSALVKAEPVAEEDVDGTAEAVQRLSQDKAARQSGAGETNHDAEGAQPTNASHLVTPLLLEPTPLWGPAARNGGGKGSVDGGAATASMAHSPLSYHVQLQLQQASRSLLSEAEVLQLVVGRPQRALDVYRLLDDVDDRLQYREEAVNAFVEAVTGVFAE | not soluble
GPGSMQTSQSLHTAPAEKEVEAPPQLPLTDGRCYACRRCRRILSEVQWYATGCVECSATMGVPDRDSLLDFATPHFHNFIGLIAPGQSWVARLIMKSREPTNGIFAETLSDDEPEDEENEIEPYVGDADEEEGPALLDGEDGAAEPVHELAAEAPE | soluble
MSLSDQSQIIAGFTLWHLSLPVTARRDHGIGSVAGAVEVVVLRLQADSGAVGYGEASPWVVFTGSVEATYAALDRYLRPLVLGRAVGDHAAIMEDARAAVAHCTEAKAALDTALYDLRARIAGVPVWALLGGRCRDRIPLSCSIADPDFDKDLALMQRLQDDDVRIIKLKTGFKDHAFDMMRLERLRADFPAFDIRVDYNQGLHHDVALARVRDVATFKPTFIEQPVKAHLRGLMARIRDAVDVPLLADESIFGPEDMAEHPEIADGVSIKIMKSGGLTRAQTVARMAAARGLSAYGGDMFEAGLAHLAGAHMIAATPEITLGCEFYQATYFLCDDILAAPFPVADGHVLVPDTPGLGVDVDEDALARFAVAREGHHHHHH | soluble
MIMKANIFNIQRFSIHDGPGIRTVVFFKGCPLRCPWCSNPESQHRPPQILWDKKKCFYGHLCEVKCPAGCLNFENNNLVFSADNCTGCKSCITQCPGKALTFVGNMMELDEVMEEVLKDMDFYQESKGGVTLSGGEVLVQPDFAAALLKKCKENGIHTALETTAFSTPLVFSKVLANTDLLLLDIKHYNDREHIKYTGVSNQSILENLDFAVTMKVPVVARIPVIPSVNNTIQDAKEFVKLLKEHRVDTVNLLPFHQFGEKKYEELQVPYQLKDVKALRPEDMTEYYNVFKNAGLNVSM | not soluble
MDKNETRATIIRIGTDLISRQGFNATGIDAVLKEAGVPKGSFYYYFRSKEEFGLAVIDHFAERYDQRLDTFLNDEEVTPLNRIRNYLESALARLEQNQCSKGCLIGNLGQELADQHERFRGRLDEIFRSWKDRFAACLREAQRGGELAPELDAGVAAGFILSGLEGAILRTKVMKSPQPLRDFIEILFASVLRRQA | not soluble
GPGSMRSQRVLQRTRKQKMESSSCASAPIAVDAQDVVVPPAVAQARAWLSLYGACCTEEEVEMHPVVLSRVLQAVELVQSRSCLSSGSEGPLAATTTKHTCRSGEGDAEAATARSSPTALHEGDDSKRGKGEAGLSIDFGGLWMLLSEWIAILRSLVATVPLHTLSLRDTALGDAGLRCLCRQVATTSVKPASLEVASRCEACSFHLLGLSTLAAPPSCPPTIPGSWAASTLRLLDLSGAALTDGGPLASLLASCPQLHSLNLSDNSLGSRDAGLALLCAALQVHPSLEVLSLRRNCISGSRNGPAIAALAELIVARSVEGSRTLSKACGYGSALCRQQTPAAAAVAAQPLRRLDLSHNLLGTYFLLSDATMTHRAEAGRPSAAREYDMASSSGRHVGVHEAVASFPLVAALYLNNTLIELNLHNNGLPGALLEYVEAKLHVNQRTTGGGADFSKTVSTEIIASTTVRQVLIHRLRCTLDHILAGTANASGMVGATHTERGDAPPTEVPAESQSSVLSAAERRWTTGEVSELVQRLVYNVASDLSLF | not soluble
MLSAFTPRPLKRLFTANQCWTSFLDAGGLRDIEVEAVTKMLACGTRILGVKEYICDKPECPHVRYVTNSCGSRACPSCGKKATDLWIATQLNRLPDCDWVHLVFTLPDTQWPVFESNRWLLNDVCRLAVENLLYAARKRGQEPGIFCAIHTYGRRLNWHPHVHVSVTCGGLNKHGQWKKLSFLKDAMRSRWMWNMRQRLLKAWSEGLAMPESLSHITTESQRRSLVLKAGGKYWHVYMSKKTAGGRNTARYLGRYLKKPPIAASRLAHYNGGGA | not soluble
MTISEVSKKYELSADTLRYYERIGLIPPVNRNKSGIRSFTEEDCEWVNFIKCMRGAGLSIETLIEYVAMFQQGSSTIKARKELLIEQRNQLAKRIEEMQKTLERLNFKIDRYEEGIIEKEKVLKSSRNKKMEAVSYE | not soluble
MRITDLLSKDVMIMSLQATTKEAAIDEMIASLKSNGKINDEVLFKEAIMNREAQSSTGVGEGIAMPHAKTKAVNEPTVVFAKSEKGLDYNSLDGQPAHLFFMIAAPDGANATHLETLAALSRLLVHPAFVQSLKDAKTPDDVITLFNNEQGDAEE | not soluble
MGSDKIHHHHHHMNAQTPIRRPISLVLASPRGFCAGVDRAIQIVERAVEKFGAPVYVRHEIVHNRHVVDRLKALGAVFIEELEEAPDDRPVVFSAHGVPKSVPAEAKARQMIYLDATCPLVSKVHVEAQKHYDAGREIVLIGHAGHPEVIGTMGQLPEGAVTLIEDLKDAAAWEPKDAANVAFLTQTTLSVDDTADMVALLRERFPGIAAPHKEDICYATTNRQDAVKHLAEQSELILVVGSKNSSNSVRLKEVGLKAGARDAHLIDDASGIDWTWFDGISRVGLTAGASAPEDLVQGVIDAISARFDTTVEELVEARETITFKLPRLLTA | not soluble
MSLGDAADPREMRKTFIVPAIKPFDHYDFSRAKIACNLAWLVAKAFGTENVPEELQEPFYTDQYDQEHIKPPVVNLLLSAELYCRAGSLILKSDAAKPLLGHDAVIQALAQKGLYVTDQEKLVTERDLHKKPIQMSAHLAMIDTLMMAYTVEMVSIEKVIACAQQYSAFFQATDLPYDIEDAVMYWINKVNEHLKDIMEQEQKLKEHHTVEAPGGQKEGHHHHHH | soluble
